The Kd is the constant that tells how readily two partners part at equilibrium. As a reminder, the EC50 is the concentration at which the effect is half-maximal. Broadly, the IC50 is the concentration that inhibits the measured activity by half.

The values that follow come from patent US20230348603A1 (VERSEAU THERAPEUTICS, published 2023).

Experiment [1] has as its target T1, Cynomolgus Monkey VSIG4-L-His (cynomolgus monkey).
T1 construct: ECD with His tag; also called cyVSIG4-L; cyno VSIG4-L-His
T1 chain: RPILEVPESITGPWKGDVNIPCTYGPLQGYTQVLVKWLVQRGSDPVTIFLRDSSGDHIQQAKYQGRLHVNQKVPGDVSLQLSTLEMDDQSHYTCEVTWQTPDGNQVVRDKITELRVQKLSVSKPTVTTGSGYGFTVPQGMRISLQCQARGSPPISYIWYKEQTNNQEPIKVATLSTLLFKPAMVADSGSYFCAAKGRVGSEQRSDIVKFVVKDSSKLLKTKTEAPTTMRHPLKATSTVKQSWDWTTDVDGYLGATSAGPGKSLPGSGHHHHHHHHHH
Kind of experiment: SPR (FJB).

In experiment [2] the target is T2, Human VSIG4-L-Fc (human).
T2 construct: also called hVSIG4-L-Fc; hVSIG4-L
The experiment is described as follows: ligand blocking of C3b, IgG.

Experiment [3] concerns the target T2, Human VSIG4-L-Fc. The experiment is described as follows: ligand blocking of iC3b, IgG.
The target in experiment [4] is T2, Human VSIG4-L-Fc. The experiment is described as follows: ELISA, IgG 50 nM on coated antigen.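 Note: Mouse-human chimeric IgG4 antibodies incubated 1 h on plate-coated VSIG4 proteins, bound IgG detected with HRP-labelled anti-human IgG, irrelevant antibody and protein as specificity controls.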
In the next experiment the target is T3, Human VSIG4-S-Fc (human).
T3 construct: short isoform ECD fused to human Fc1; also called hVSIG4-S
T3 sequence (chain, as listed by the source limits assumed): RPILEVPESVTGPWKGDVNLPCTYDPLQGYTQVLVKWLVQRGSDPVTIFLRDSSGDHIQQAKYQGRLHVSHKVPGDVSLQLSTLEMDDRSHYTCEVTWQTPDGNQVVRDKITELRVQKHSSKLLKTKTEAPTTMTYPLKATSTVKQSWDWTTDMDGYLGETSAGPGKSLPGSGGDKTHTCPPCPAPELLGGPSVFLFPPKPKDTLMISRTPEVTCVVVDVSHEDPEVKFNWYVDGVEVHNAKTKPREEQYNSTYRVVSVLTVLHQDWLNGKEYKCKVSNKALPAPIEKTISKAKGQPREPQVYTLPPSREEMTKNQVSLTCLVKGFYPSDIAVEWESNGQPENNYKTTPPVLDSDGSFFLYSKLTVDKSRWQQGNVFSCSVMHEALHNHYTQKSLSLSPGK
Kind of experiment: ELISA, IgG 50 nM on coated antigen.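 Note: Mouse-human chimeric IgG4 antibodies incubated 1 h on plate-coated VSIG4 proteins, bound IgG detected with HRP-labelled anti-human IgG, irrelevant antibody and protein as specificity controls.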 On the technique in general: ELISA stands for enzyme-linked immunosorbent assay.

Experiment [5] deals with T1, Cynomolgus Monkey VSIG4-L-His. Kind of experiment: ELISA, IgG 50 nM on coated antigen.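 Note: Mouse-human chimeric IgG4 antibodies incubated 1 h on plate-coated VSIG4 proteins, bound IgG detected with HRP-labelled anti-human IgG, irrelevant antibody and protein as specificity controls.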
The target of another experiment is T4, Mouse VSIG4-His (mouse).
T4 construct: ECD with His tag; also called mVSIG4
T4 chain: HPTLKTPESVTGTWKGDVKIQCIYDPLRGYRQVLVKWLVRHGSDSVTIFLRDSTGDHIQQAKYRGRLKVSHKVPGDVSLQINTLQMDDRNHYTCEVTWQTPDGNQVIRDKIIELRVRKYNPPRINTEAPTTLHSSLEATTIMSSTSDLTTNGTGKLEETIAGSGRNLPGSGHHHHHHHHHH
The experiment is described as follows: ELISA, IgG 50 nM on coated antigen.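 Note: Mouse-human chimeric IgG4 antibodies incubated 1 h on plate-coated VSIG4 proteins, bound IgG detected with HRP-labelled anti-human IgG, irrelevant antibody and protein as specificity controls.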

A further experiment concerns the target T5, Human VSIG4-L-His (human, UniProt Q9Y279 20-283).
T5 construct: long isoform ECD with His tag; also called hVSIG4-L
T5 sequence: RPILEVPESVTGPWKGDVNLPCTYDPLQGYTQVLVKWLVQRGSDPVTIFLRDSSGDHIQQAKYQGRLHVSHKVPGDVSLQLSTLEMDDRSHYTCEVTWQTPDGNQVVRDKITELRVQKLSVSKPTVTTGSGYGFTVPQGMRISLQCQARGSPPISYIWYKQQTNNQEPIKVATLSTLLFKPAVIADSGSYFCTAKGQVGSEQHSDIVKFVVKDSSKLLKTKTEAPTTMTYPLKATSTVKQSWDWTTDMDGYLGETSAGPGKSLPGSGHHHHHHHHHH
The experiment is described as follows: BLI, IgG on AHC sensor, antigen 100 nM. (Biolayer interferometry detects binding as a change in optical thickness at a sensor tip.)

The target of experiment [6] is T1, Cynomolgus Monkey VSIG4-L-His. Kind of experiment: BLI, IgG on AHC sensor, antigen 100 nM.
In experiment [7] the target is T6, Human VSIG4-L-CHO (human VSIG4 long isoform on CHO-K1 cells) (human, UniProt Q9Y279 20-399).
T6 construct: also called hVSIG4-L (flow cytometry)
T6 sequence: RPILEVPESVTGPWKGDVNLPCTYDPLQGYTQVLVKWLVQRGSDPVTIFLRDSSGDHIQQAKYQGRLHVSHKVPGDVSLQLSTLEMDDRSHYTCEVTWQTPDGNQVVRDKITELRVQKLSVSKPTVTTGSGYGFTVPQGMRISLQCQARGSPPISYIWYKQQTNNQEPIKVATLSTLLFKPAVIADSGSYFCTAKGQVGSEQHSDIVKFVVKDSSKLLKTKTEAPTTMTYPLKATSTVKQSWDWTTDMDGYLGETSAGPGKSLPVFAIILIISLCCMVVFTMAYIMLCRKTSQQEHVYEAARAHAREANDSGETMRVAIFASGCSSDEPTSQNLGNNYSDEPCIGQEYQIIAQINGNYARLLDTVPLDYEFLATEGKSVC
The experiment is described as follows: flow cytometry, CHO-K1 cells expressing hVSIG4-L. (In general: In flow cytometry, cells or beads pass a laser one at a time.)

In experiment [8] the target is T2, Human VSIG4-L-Fc. The experiment is described as follows: BLI binning on hVSIG4-L-Fc, competitor 12A08 first.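 Note: normalized to binding of second antibody without first competitor antibody.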
Experiment [9] addresses T2, Human VSIG4-L-Fc. The experiment is described as follows: BLI binning on hVSIG4-L-Fc, competitor 12A12 first.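 Note: normalized to binding of second antibody without first competitor antibody.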
Experiment [10] deals with T2, Human VSIG4-L-Fc. Kind of experiment: BLI binning on hVSIG4-L-Fc, competitor 14C05 first.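 Note: normalized to binding of second antibody without first competitor antibody.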
Experiment [11] has as its target T2, Human VSIG4-L-Fc. The experiment is described as follows: BLI binning on hVSIG4-L-Fc, competitor 14D12 first.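 Note: normalized to binding of second antibody without first competitor antibody.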
In experiment [12] the target is T2, Human VSIG4-L-Fc. Kind of experiment: BLI binning on hVSIG4-L-Fc, competitor 15C03 first.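 Note: normalized to binding of second antibody without first competitor antibody.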
Experiment [13] addresses T2, Human VSIG4-L-Fc. The experiment is described as follows: BLI binning on hVSIG4-L-Fc, competitor 15C04 first.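 Note: normalized to binding of second antibody without first competitor antibody.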
Experiment [14] concerns the target T2, Human VSIG4-L-Fc. The experiment is described as follows: BLI binning on hVSIG4-L-Fc, competitor 16E03 first.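 Note: normalized to binding of second antibody without first competitor antibody.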
Experiment [15] deals with T2, Human VSIG4-L-Fc. The experiment is described as follows: BLI binning on hVSIG4-L-Fc, competitor 16E10 first.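 Note: normalized to binding of second antibody without first competitor antibody.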
The target of experiment [16] is T2, Human VSIG4-L-Fc. Kind of experiment: BLI cross-blocking on hVSIG4-L-Fc, competitor 14C05 first.
In experiment [17] the target is T2, Human VSIG4-L-Fc. Kind of experiment: BLI cross-blocking on hVSIG4-L-Fc, competitor 16G02 first.
Experiment [18] addresses T2, Human VSIG4-L-Fc. The experiment is described as follows: ligand competition ELISA (FJB), blocked ligand C3b.
The target of experiment [19] is T2, Human VSIG4-L-Fc. Kind of experiment: ligand competition ELISA (FJB), blocked ligand iC3b.
Experiment [20] addresses T6, Human VSIG4-L-CHO (human VSIG4 long …). Kind of experiment: flow cytometry (FJB), 200 nM mAb, huVSIG4-L CHO-K1 cells.

B1: 12A12 mouse/human chimeric IgG4 (S228P) kappa (antibody, V domains shown)
VH: QVQMKQSGAELAKPGASVKMSCKASGYTFTNYWMHWVKQRPGQGLEWIGYINPSTGYTDYNQNFKDRATLTADKSSSTAYMQLSSLTSEDSAVYYCIRGSDYYGRDYWGQGTTLTVSS
VL: DIQMTQTTSSLSASLGDRVTISCRASQDISNYLNWYQQKPDGTLKLLIYYTSRLHSGVPSRFSGSGSGTDYSLTISNLEQEDIATYFCRQGNTLPWTFGGGTKLEIKR
As to B1, the dissociation constant (Kd) in [1] was determined as 6.8 nM. For the same molecule, the “Percent Blocking C3b” value in the experiment with Human VSIG4-L-Fc [2] is 96%. For the same molecule, in the experiment with Human VSIG4-L-Fc [3], the “Percent Blocking iC3b” value is 98%. The “ELISA OD450” value was determined as 4.45 OD450 in the experiment with Human VSIG4-L-Fc [4], 4.18 OD450 with Human VSIG4-S-Fc, 4.4 OD450 in experiment [5] and 0.054 OD450 with Mouse VSIG4-His. In addition, the “KD relative to parental chimera” value (with Human VSIG4-L-His; in experiment [6]) was 1 fold in each case. The molecule further registered an EC50 in [7] of 4.4 nM. Further, the “normalized maximum binding nm shift” value with Human VSIG4-L-Fc [8] was found to be 0.86 normalized; with Human VSIG4-L-Fc [9] it was 0.13 normalized; with Human VSIG4-L-Fc [10], 0.72 normalized; with Human VSIG4-L-Fc [11], 0.7 normalized; with Human VSIG4-L-Fc [12] it was 0.65 normalized; with Human VSIG4-L-Fc [13] it was 0.76 normalized. Moreover, the “normalized maximum binding nm shift” value in the experiment with Human VSIG4-L-Fc [14] was found to be 0.64 normalized; with Human VSIG4-L-Fc [15] it was 0.62 normalized. The “binding signal (nm shift)” value stood at 0.72 nm with Human VSIG4-L-Fc [16] and 0.16 nm with Human VSIG4-L-Fc [17]. For the same molecule, the values for the IC50 in the experiment with Human VSIG4-L-Fc [18] and in the experiment with Human VSIG4-L-Fc [19] were 0.9 nM and 0.5 nM, respectively. In experiment [20], the “Binding (200 nM) MFI” value amounted to 106000 MFI.
